This is an account of results in the supplement of paper PMC7877785.

± gives the uncertainty stated by the source.

The nature of the data set: self-splicing fitness, log relative to wild type (ln ratio); higher = more splicing; Tetrahymena group I intron in knt gene, E. coli kanamycin selection, DiMSum; sequences stand for … in CUCUCU…GGAGGGAAAAGUUAUCAGGCAUGCACCUGGUAGCUAGUCUUUAAACCAAUAGAUUGCAUCGGUUUAAAAGGCAAGACCGUCAAAUUGCGGGAAAGGGGUCAACAGCCGUUCAGUACCAAGUCUCAGGGGAAACUUUGAGAUGGCCUUGCAAAGGGUAUGGUAAUAAGCUGACGGACAUGGUCCUAACCACGCAGCCAAGUCCUAAGUCAACAGAUCUUCUGUUGAUAUGGAUGCAGUUCACAGACUAAAUGUCGGUCGGGGAAGAUGUAUUCUUCUCAUAAGAUAUAGUCGGACCUCUCCUUAAUGGGAGCUAGCGGAUGAAGUGAUGCAACACUGGAGCCGCUGGGAACUAAUUUGUAUGCGAAAGUAUAUUGAUUAGUUUUGGAGUACUCGUGGUCG
A digest of the protocol:
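Colonies from six replicate transformations of E. coli BL21(DE3) were pooled and amplicon-sequenced on an Illumina HiSeq 2500. The library placed an intron with all eight P1ex-region nucleotides randomised inside the knt kanamycin-resistance gene on pET-22b(+), and cells grew overnight at 37°C or 30°C on LB agar with or without 25 μg/mL kanamycin (plus 100 μg/mL carbenicillin, 50 μM IPTG, 0.2% rhamnose). Fitness is the DiMSum error-weighted combination of wild-type-normalised replicate fold changes, kanamycin versus none.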

For AUCUAGCAAUAUUACGGGCC, the “self-splicing fitness (ln)” value is, setting by setting: (30 °C) -3.15 ± 0.23; (37 °C) -2.18 ± 0.22.
In the same order, the values of AAGCAGCAAUAUUACGGGUA are -1.91 ± 0.15 and -2.31 ± 0.16.
Take GGGAAGCAAUAUUACGGUUU: the “self-splicing fitness (ln)” value runs as follows: (30 °C) -1.89 ± 0.099; (37 °C) -1.07 ± 0.1.
Regarding UACGAGCAAUAUUACGGAGG, the “self-splicing fitness (ln)” value (30 °C) was -2.06 ± 0.5.
In the case of CUUUAGCAAUAUUACGUAAA, the “self-splicing fitness (ln)” value (37 °C) is -2.24 ± 0.28.
In the case of CCCAAGCAAUAUUACGUAAG, the “self-splicing fitness (ln)” value is -3.05 ± 0.19 (30 °C) and -1.87 ± 0.16 (37 °C).
Take UCUAAGCAAUAUUACGGCAC: the “self-splicing fitness (ln)” value is -3.19 ± 0.44 (30 °C) and -2.85 ± 0.32 (37 °C).
In the same order, the values of UAAGAGCAAUAUUACGGGAU are -3.55 ± 0.31 and -2.99 ± 0.28.
In the same order, the values of AACGAGCAAUAUUACGCGAG are -2.75 ± 0.24 and -2.61 ± 0.25.
For AGGCAGCAAUAUUACGAUGC, the “self-splicing fitness (ln)” value was -3.17 ± 0.15 (30 °C) and -2.8 ± 0.18 (37 °C).
As for CAAUAGCAAUAUUACGAAAA, for the setting “30 °C”, the “self-splicing fitness (ln)” value is -2.39 ± 0.34.
With UUAGAGCAAUAUUACGGAUG, the “self-splicing fitness (ln)” value (30 °C) was -3.13 ± 0.19 and the “self-splicing fitness (ln)” value (37 °C) is -0.15 ± 0.15.
Consider GCUUAGCAAUAUUACGAAAC, for which the “self-splicing fitness (ln)” value is, setting by setting: (30 °C) -1.22 ± 0.16; (37 °C) -0.448 ± 0.24.
Turning to UGGAAGCAAUAUUACGCAGU, the “self-splicing fitness (ln)” value is, setting by setting: (30 °C) -2.85 ± 0.4; (37 °C) -1.6 ± 0.18.
In the same order, the values of CCUCAGCAAUAUUACGACCG are -0.986 ± 0.093 and -0.493 ± 0.095.
On to UCAGAGCAAUAUUACGGCUC, for which the “self-splicing fitness (ln)” value is -4.58 ± 0.34 (30 °C) and -3.36 ± 0.25 (37 °C).
For UACGAGCAAUAUUACGAGAC, in that order: -3.68 ± 0.26 and -2.72 ± 0.27.
In the same order, the values of GUUUAGCAAUAUUACGAGUU are -4.25 ± 0.29 and -2.3 ± 0.14.
In the same order, the values of GUUGAGCAAUAUUACGCGAA are -3.43 ± 0.46 and -1.9 ± 0.43.
For the sequence CGGUAGCAAUAUUACGCCGA, the “self-splicing fitness (ln)” value is, setting by setting: (30 °C) -0.997 ± 0.24; (37 °C) -1.5 ± 0.25.
Take ACGGAGCAAUAUUACGUGAG: the “self-splicing fitness (ln)” value is -3.06 ± 0.28 (30 °C) and -1.15 ± 0.19 (37 °C).
In the same order, the values of UUUGAGCAAUAUUACGAACU are -3.36 ± 0.28 and -2.77 ± 0.31.
As to ACGCAGCAAUAUUACGUUAA, the “self-splicing fitness (ln)” value (30 °C) was -3.4 ± 0.31 and the “self-splicing fitness (ln)” value (37 °C) is -2.88 ± 0.24.
Consider AAGCAGCAAUAUUACGGGAC, for which the “self-splicing fitness (ln)” value runs as follows: (30 °C) -4.44 ± 0.46; (37 °C) -3.38 ± 0.39.
Regarding GCGAAGCAAUAUUACGGGGU, the “self-splicing fitness (ln)” value is -3.89 ± 0.34 (30 °C) and -2.89 ± 0.29 (37 °C).
In the same order, the values of UAAAAGCAAUAUUACGUUCG are -0.052 ± 0.085 and -0.0686 ± 0.11.
Regarding AAUUAGCAAUAUUACGAUAC, the “self-splicing fitness (ln)” value is -1.24 ± 0.36 (30 °C) and -0.477 ± 0.21 (37 °C).
For UCAAAGCAAUAUUACGGCAU, in that order: -2.94 ± 0.14 and -2.75 ± 0.14.
Take CGGAAGCAAUAUUACGUACA: the “self-splicing fitness (ln)” value is -0.615 ± 0.13 (30 °C) and -0.219 ± 0.15 (37 °C).
Turning to GAAGAGCAAUAUUACGGGAG, the “self-splicing fitness (ln)” value is -3.15 ± 0.19 (30 °C) and -2.19 ± 0.23 (37 °C).
For ACACAGCAAUAUUACGUACC, in that order: -1.43 ± 0.11 and -1.12 ± 0.15.
In the same order, the values of UGGUAGCAAUAUUACGAAAC are -4.02 ± 0.42 and -2.42 ± 0.45.
In the case of AAGAAGCAAUAUUACGCUGC, the “self-splicing fitness (ln)” value is, setting by setting: (30 °C) -2.58 ± 0.32; (37 °C) -1.75 ± 0.35.
As for UAAUAGCAAUAUUACGAACU, the “self-splicing fitness (ln)” value was -1.37 ± 0.14 (30 °C) and -1.62 ± 0.17 (37 °C).
For AAGCAGCAAUAUUACGGGUU, in that order: -2.1 ± 0.094 and -1.61 ± 0.12.
In the same order, the values of AUAAAGCAAUAUUACGGCCG are -0.128 ± 0.1 and 0.3 ± 0.16.
With ACUCAGCAAUAUUACGGGGC, the “self-splicing fitness (ln)” value (30 °C) is -4.64 ± 0.34 and the “self-splicing fitness (ln)” value (37 °C) is -2.93 ± 0.44.
Turning to UAACAGCAAUAUUACGCUCA, the “self-splicing fitness (ln)” value (30 °C) is -0.26 ± 0.091 and the “self-splicing fitness (ln)” value (37 °C) came out at 0.174 ± 0.13.
As for AUGGAGCAAUAUUACGCUGU, the “self-splicing fitness (ln)” value by setting is: (30 °C) -2.13 ± 0.21; (37 °C) -1.37 ± 0.44.
In the same order, the values of AUUAAGCAAUAUUACGCUUA are -2.18 ± 0.26 and -1.82 ± 0.25.
In the same order, the values of AUACAGCAAUAUUACGUUCC are -2.46 ± 0.15 and -0.684 ± 0.14.
In the same order, the values of UACCAGCAAUAUUACGGGGC are -4.11 ± 0.29 and -2.72 ± 0.2.
On to CCUUAGCAAUAUUACGGUUG, for which the “self-splicing fitness (ln)” value reads like this: (30 °C) -2.38 ± 0.1; (37 °C) -1.48 ± 0.098.
In the case of AUAAAGCAAUAUUACGCUCG, the “self-splicing fitness (ln)” value (30 °C) was 0.147 ± 0.1 and the “self-splicing fitness (ln)” value (37 °C) was 0.699 ± 0.13.
As for CUGGAGCAAUAUUACGUAGC, the “self-splicing fitness (ln)” value (37 °C) was -2.38 ± 0.32.
UUAGAGCAAUAUUACGAUAA: the “self-splicing fitness (ln)” value by setting is: (30 °C) -0.0105 ± 0.13; (37 °C) 0.418 ± 0.18.
For GUCUAGCAAUAUUACGACAG, in that order: -2.33 ± 0.18 and -1.71 ± 0.3.
As for UGGUAGCAAUAUUACGUGAC, the “self-splicing fitness (ln)” value reads like this: (30 °C) -3.97 ± 0.27; (37 °C) -1.05 ± 0.2.
In the same order, the values of AGAAAGCAAUAUUACGUAAA are -2.15 ± 0.12 and -1.88 ± 0.14.
For the sequence CUUAAGCAAUAUUACGCUAG, the “self-splicing fitness (ln)” value was -3.35 ± 0.25 (30 °C) and -0.439 ± 0.19 (37 °C).
UGGCAGCAAUAUUACGGCGU: the “self-splicing fitness (ln)” value is, setting by setting: (30 °C) -1.32 ± 0.12; (37 °C) -0.678 ± 0.14.
For UAUGAGCAAUAUUACGUUCA, in that order: -1.29 ± 0.2 and -0.652 ± 0.22.
As for AACGAGCAAUAUUACGACUU, the “self-splicing fitness (ln)” value was -0.000737 ± 0.11 (30 °C) and -0.7 ± 0.12 (37 °C).
In the same order, the values of AGAAAGCAAUAUUACGGGGU are -3.8 ± 0.22 and -2.34 ± 0.23.
Regarding CCAAAGCAAUAUUACGGUAG, the “self-splicing fitness (ln)” value is, setting by setting: (30 °C) -1.99 ± 0.056; (37 °C) -0.962 ± 0.066.
For GCGAAGCAAUAUUACGAGCG, the “self-splicing fitness (ln)” value by setting is: (30 °C) -2.04 ± 0.14; (37 °C) -1.11 ± 0.19.
As for AUCUAGCAAUAUUACGCGUC, the “self-splicing fitness (ln)” value runs as follows: (30 °C) -3.53 ± 0.39; (37 °C) -1.07 ± 0.18.
In the same order, the values of UAAAAGCAAUAUUACGAGAC are -2.39 ± 0.28 and -2.29 ± 0.26.
Regarding UCAUAGCAAUAUUACGUAUC, the “self-splicing fitness (ln)” value runs as follows: (30 °C) -4.44 ± 0.33; (37 °C) -3.23 ± 0.24.
In the same order, the values of AUUCAGCAAUAUUACGCCCU are 0.164 ± 0.13 and 0.287 ± 0.21.
In the same order, the values of CCCUAGCAAUAUUACGUGGA are -1.42 ± 0.094 and -0.882 ± 0.093.
For CGUCAGCAAUAUUACGGAGA, in that order: -3.44 ± 0.29 and -2.76 ± 0.27.
Take UAGUAGCAAUAUUACGACAC: under “37 °C”, the “self-splicing fitness (ln)” value was -1.67 ± 0.26.
UCUGAGCAAUAUUACGGGGA: the “self-splicing fitness (ln)” value by setting is: (30 °C) -2.89 ± 0.2; (37 °C) -1.97 ± 0.19.
In the same order, the values of AAGAAGCAAUAUUACGCAUU are -2.89 ± 0.21 and -1.52 ± 0.21.
In the same order, the values of CCGUAGCAAUAUUACGUACA are -2.04 ± 0.14 and -1.8 ± 0.19.
For CUCCAGCAAUAUUACGAUGG, the “self-splicing fitness (ln)” value is -4.58 ± 0.32 (30 °C) and -3.19 ± 0.26 (37 °C).
In the same order, the values of GUACAGCAAUAUUACGUGGU are -3.43 ± 0.16 and -2.49 ± 0.17.
In the same order, the values of CACGAGCAAUAUUACGUUGA are -3.06 ± 0.17 and -2.47 ± 0.18.
For CCAAAGCAAUAUUACGAGAC, in that order: -3.26 ± 0.24 and -2.31 ± 0.23.
Regarding AAGAAGCAAUAUUACGGUCC, the “self-splicing fitness (ln)” value by setting is: (30 °C) -1.1 ± 0.14; (37 °C) 0.249 ± 0.16.
Turning to GCCGAGCAAUAUUACGUCUG, the “self-splicing fitness (ln)” value (30 °C) is -3.36 ± 0.32 and the “self-splicing fitness (ln)” value (37 °C) was -2 ± 0.27.
For GGUAAGCAAUAUUACGGAAU, in that order: -3.35 ± 0.22 and -1.87 ± 0.22.
In the same order, the values of CUCAAGCAAUAUUACGCGGC are -3.21 ± 0.25 and -3.15 ± 0.34.
In the same order, the values of CAGUAGCAAUAUUACGGCUA are -1.11 ± 0.15 and -1.21 ± 0.16.
For the sequence UUCAAGCAAUAUUACGGGAA, the “self-splicing fitness (ln)” value was -1.32 ± 0.11 (30 °C) and -0.286 ± 0.094 (37 °C).
Turning to CUGGAGCAAUAUUACGUACA, the “self-splicing fitness (ln)” value (37 °C) is -1.28 ± 0.48.
